Test results: US20170281749A1

Assays:
[1] = target: CH505TF gp120 GCN4 Trimer; assay: SPR
[2] = target: CH505TF gp140 Trimer; assay: SPR

Row | Substance | Kd [1] [nM] | Kd [2] [nM]
1 | 2G12 (-CHO) | 169 | 6.5
2 | 19b (V3) | 0.8 | 1.2
3 | 697 D (V2) | 554 | 170
4 | A32 (C1) | 2.9 | 3
5 | CH01 (V1-V2) | > 100000 | –
6 | CH58 (V2) | 104 | 60.5
7 | CH103_UCA (CD4 bs) | 14.6 | 36.1
8 | CH106 (CD4 bs) | 5.5 | 5.81
9 | F105 (CD4 bs) | 40.7 | 24.9
10 | PG9 (V1-V2) | 159 | 69.2
11 | PGT128 (-CHO) | 53 | 20.3
12 | VRC01 (CD4 bs) | 2.5 | 2.4
